Measurements from patent publication US4746508A, “Drug administration” (Beth Israel Hospital Assn., priority 1984, dated 1988).

How the values were obtained:
[1] = HPLC k' factor value (hydrophobicity) of unconjugated steroid; assay type: physicochemical; conditions: octadecylsilane column, 75% methanol in water, apparent pH 5.0
Method: Preferably the steroid used in the invention is characterized in that the unconjugated derivative of the steroid is retained on a hydrophobic column for a length of time sufficient to produce a k' factor value of at least about 4, the k' factor value being obtained by subjecting a monomeric solution of 1 mg/ml of such steroid derivative to high-performance liquid column chromatography at 3,000 psi, using a 250×4.6 mm column having octadecylsilane-coated 5 μm silica particles as the stationary phase and a mobile phase, delivered at 1.0 ml/min., consisting of 75% methanol in ater, v/v, buffered with 0.005M KH2 PO4 /H3 PO4 to give an apparent pH value, as measured using a glass electrode, of 5.0, the k' factor value being defined by [formula] where t0 is the retention time in the column of the solvent front and tr is the retention time in the column of the steroid derivative as measured by obtaining the elution profile of the steroid derivative by absorbance at 210 nm.
The structure of the steroid molecule affects its chemical properties and thus its functioning as a drug transporting molecule. We believe that all of the steroid molecules used in the invention facilitate transport by self-associating to form reversed micelles within the membrane across which the drug is being transported; these reversed micelles, it is believed, function as pores, allowing the drug to pass through. A measure of a given steroid molecule's ability to form such reversed micelles is the hydrophobicity of the unconjugated form of the molecule, a property which can be quantified using the k' factor value, which is computed by observing the steroid's retention time in a high-performance liquid chromatography (HPLC) column under the conditions described above. As mentioned above, the k' value of the unconjugated derivative of the steroid should be at least about 4 for the steroid to be suitable in the therapeutic compositions of the invention.
The k' and CMT of the steroids used in the compositions of the invention are influenced by whether the steroid is conjugated at C21 and, if so, by the nature of the conjugating group. Additionally, a polar group at position 16 is essential for solubility (See position E on formula 1). Because the k' factor value is influenced by the polarity of any conjugating group, unconjugated derivatives must be used in numerical comparisons involving steroids which are conjugated with different groups, or comparisons involving both conjugated and unconjugated steroids. Overall hydrophobicity and k' factor value generally decrease as the polarity of the conjugating group increases. However, such decrease is not a reflection of the hydrophobicity of the steroid nucleus. […]

[2] = in vivo
Method: Corticotropin releasing-factor (CRF, a hormone of MW 4,000) (Dr. George Chrousos, National Institute of Health, Bethesda, MD) was dissolved in 0.15 NaCl and mixed with the 2% solution of sodium tauro-24,25-dihydrofusidate. CRF was also prepared without adjuvant. Two sheep were administered 350 mg ketamine intravenously and a total of 460 μg of CRF as a liquid, by drops into each side of the nose of the sheep at time 0. The dose of CRF was approximately 10 μg/kg body weight.

[3] = Intranasal administration of proinsulin to sheep (insulin RIA adjusted for cross-reactivity); assay type: in vivo; conditions: for Proinsulin (μU/ml above baseline): Sheep 196 Study 25, 1.5 mg into each nostril
Method: Commercially available proinsulin (Eli Lilly & Co., Indianapolis, Ind.) was mixed with the sodium tauro-24,25-dihydrofusidate solution or in 0.15M NaCl, pH 7.6 to give a final concentration of 6 mg/ml of proinsulin and 1% (w/v) sodium tauro-24,25-dihydrofusidate. Sheep were administered by nasal drops 1.5 mg (250 μl) of the solution into each nostril at time 0. Sheep 25 was administered proinsulin without adjuvant as described above.

CC(=O)OC1CC2(C)C(CC(O)C3C4(C)CCC(OC(C)=O)C(C)C4CCC32C)C1=C(CCC=C(C)C)C(=O)O (stereo not drawn) [3-acetoxyl-fusidic acid]
k' factor value [1]: 26.4

CC(=O)O[C@H]1C[C@@]2(C)[C@@H](C[C@@H](O)[C@H]3[C@@]4(C)CC[C@@H](O)[C@@H](C)[C@@H]4CC[C@@]32C)/C1=C(\CCCC(C)C)C(=O)O [24,25-dihydrofusidic acid]
k' factor value [1]: 27.1

CC(=O)O[C@@H]1[C@H]2[C@H](C)[C@H](O)CC[C@]2(C)[C@@H]2CC[C@H]3/C(=C(\CCC=C(C)C)C(=O)O)[C@@H](OC(C)=O)C[C@]3(C)[C@@]2(C)[C@H]1O [cephalosporin P1]
k' factor value [1]: 9.5

CC(=O)O[C@H]1C[C@@]2(C)[C@@H](C[C@@H](O)[C@H]3[C@@]4(C)CC[C@@H](O)[C@@H](C)[C@@H]4CC[C@@]32C)/C1=C(\CCC=C(C)C)C(=O)O [fusidic acid, reference compound]
k' factor value [1]: 20.7

Corticotropin releasing-factor without tauro-24,25-dihydrofusidate: corticotropin releasing-factor, a hormone of MW 4,000, prepared without adjuvant
increase of CRF level [2]: increased only slightly

Proinsulin without sodium tauro-24,25-dihydrofusidate: commercially available proinsulin (Eli Lilly) in 0.15M NaCl, pH 7.6, without adjuvant
Proinsulin (μU/ml above baseline) ([3]; 0 min): 0 μU/ml
Proinsulin (μU/ml above baseline) ([3]; 10 min): 2.8 μU/ml
Proinsulin (μU/ml above baseline) ([3]; 15 min): 28 μU/ml
Proinsulin (μU/ml above baseline) ([3]; 20 min): 56 μU/ml
Proinsulin (μU/ml above baseline) ([3]; 30 min): 22 μU/ml
Proinsulin (μU/ml above baseline) ([3]; 60 min): 0 μU/ml
Proinsulin (μU/ml above baseline) ([3]; 90 min): 0 μU/ml
Proinsulin (μU/ml above baseline) ([3]; 120 min): 0 μU/ml
Proinsulin (μU/ml above baseline) ([3]; 180 min): 0 μU/ml
Proinsulin (μU/ml above baseline) ([3]; 240 min): 2.8 μU/ml
Proinsulin (μU/ml above baseline) ([3]; +5 min): 0 μU/ml
Proinsulin (μU/ml above baseline) ([3]; -15 min): 0 μU/ml
absorption of nasally administered proinsulin ([3]; sheep, nasal drops): absorbed at a slower rate and to a much reduced extent
